Experimental data from patent US20140087995A1 (published 2014).
Numbered stars: 1 amine (or outer) side, 2 acyl side, 3 side chain; on linkers, the order of the positions; unused ones are H or OH. Bridge positions count the residues as written; N and C are the ends. * marks the point of attachment. C20 diacid = O=C(O)CCCCCCCCCCCCCCCCCCC(=O)*; γGlu = O=C(O)[C@H](CCC(=O)[*:2])N[*:1]; AEEA = NCCOCCOCC(=O)O

T1: rat calcitonin receptor (rat, UniProt P32214 25-516)
T1 construct: whole, on cells; Used as membranes prepared from the transfected cells; also called rCTR; rat calcitonin (a) receptor
T1 sequence (looked up): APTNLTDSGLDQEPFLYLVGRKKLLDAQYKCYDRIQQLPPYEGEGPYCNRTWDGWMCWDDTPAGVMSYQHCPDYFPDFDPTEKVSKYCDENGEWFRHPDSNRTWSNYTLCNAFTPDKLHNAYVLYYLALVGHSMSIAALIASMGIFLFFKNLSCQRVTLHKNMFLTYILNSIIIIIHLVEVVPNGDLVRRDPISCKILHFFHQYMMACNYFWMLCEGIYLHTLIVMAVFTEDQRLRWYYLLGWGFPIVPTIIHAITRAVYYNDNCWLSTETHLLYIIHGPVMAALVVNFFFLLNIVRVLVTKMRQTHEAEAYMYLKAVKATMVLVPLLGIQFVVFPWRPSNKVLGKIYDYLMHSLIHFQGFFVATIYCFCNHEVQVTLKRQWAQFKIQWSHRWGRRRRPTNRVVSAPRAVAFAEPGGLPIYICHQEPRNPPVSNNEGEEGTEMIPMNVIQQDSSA

T2: human calcitonin receptor (human, UniProt P30988 25-474)
T2 construct: whole, on cells; Used as membranes prepared from the transfected cells (Assay VII); also called hCTR; hCT
T2 sequence (looked up): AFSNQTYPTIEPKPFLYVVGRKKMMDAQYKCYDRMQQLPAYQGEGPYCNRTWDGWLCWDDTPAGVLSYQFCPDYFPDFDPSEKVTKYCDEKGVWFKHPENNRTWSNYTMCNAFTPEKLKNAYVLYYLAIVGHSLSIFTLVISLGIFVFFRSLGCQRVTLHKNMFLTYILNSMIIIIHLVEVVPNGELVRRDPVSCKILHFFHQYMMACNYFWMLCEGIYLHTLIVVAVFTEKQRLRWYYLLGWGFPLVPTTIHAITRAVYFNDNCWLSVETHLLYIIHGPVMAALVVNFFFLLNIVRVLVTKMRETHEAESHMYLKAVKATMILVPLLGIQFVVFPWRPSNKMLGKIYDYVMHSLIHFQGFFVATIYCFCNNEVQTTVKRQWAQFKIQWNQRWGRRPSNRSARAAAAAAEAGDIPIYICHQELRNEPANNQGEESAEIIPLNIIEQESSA

T3: rat amylin receptor (rat calcitonin receptor + rat RAMP 3) (rat, UniProt P32214 25-516; Q9JJ73 23-147)
T3 construct: whole, on cells; Used as membranes prepared from the transfected cells; also called rAmylin-R; rat amylin 3(a) receptor
T3 sequence (looked up) 1: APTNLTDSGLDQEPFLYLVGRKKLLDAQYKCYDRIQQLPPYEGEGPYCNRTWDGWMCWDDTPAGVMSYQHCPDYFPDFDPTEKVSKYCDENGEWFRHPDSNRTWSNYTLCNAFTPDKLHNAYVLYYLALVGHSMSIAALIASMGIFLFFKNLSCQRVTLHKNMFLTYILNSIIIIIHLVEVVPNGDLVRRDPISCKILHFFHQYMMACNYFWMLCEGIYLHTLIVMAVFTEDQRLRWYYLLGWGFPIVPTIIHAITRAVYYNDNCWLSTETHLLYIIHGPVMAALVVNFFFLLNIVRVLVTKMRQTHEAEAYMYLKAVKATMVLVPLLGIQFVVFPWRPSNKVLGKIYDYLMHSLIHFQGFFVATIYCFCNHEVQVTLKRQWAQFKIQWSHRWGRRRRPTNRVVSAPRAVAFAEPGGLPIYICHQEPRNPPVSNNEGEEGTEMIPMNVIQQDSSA
T3 sequence (looked up) 2: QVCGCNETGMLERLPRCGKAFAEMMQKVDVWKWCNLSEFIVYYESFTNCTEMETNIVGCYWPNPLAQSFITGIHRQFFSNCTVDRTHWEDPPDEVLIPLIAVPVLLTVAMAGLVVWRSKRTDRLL


Experiments:
rat calcitonin receptor [1] = target: T1, rat calcitonin receptor; assay: ratio IC50 rat calcitonin receptor / IC50 rat amylin receptor (Assays VIII and VI)
[2] = target: T2, human calcitonin receptor; assay: ratio IC50 human calcitonin receptor / IC50 human amylin receptor (Assays VII and V)
Method: The resulting pellet was resuspended, homogenized and centrifuged (20.000 rpm, 15 min) in a buffer containing 20 mM Na-HEPES and 0.1 mM EDTA (pH 7.4, buffer 2). The resulting pellet was resuspended in buffer 2 and protein concentration was measured (BCA protein Assay, Pierce). The homogenate was kept cold during the whole procedure. The membranes were kept at −80° C. until use. The assay was performed in a 384 well Optiplate (PerkinElmer) in a total volume of 40 ul. Membranes were mixed with SPA beads. Final concentration of membranes 35 ng/μL final and SPA beads was 0.05 mg/well. Test-compounds were dissolved in DMSO and further diluted in assay buffer (50 mM Hepes, pH 7.4, 1 mM CaCl2, 5 mM MgCl₂, 0.1% OA and 0.02% Tween20). […] The final mixture was incubated with shaking at 400 rpm for 120 min at 25° C. prior to centrifugation (1500 rpm, 10 min). Samples were analyzed on TopCounter™ (Packard). The IC₅₀ was calculated using (one site binding competition analysis) GraphPad Prism5 as a measure of receptor affinity.
Membranes were prepared in the following way; the cells were rinsed with PBS and incubated with Versene for approximately 5 min before harvesting. The cells were flushed with PBS and the cell-suspension was centrifuged for 5 min at 1000 rpm. Cells were homogenized (Ultrathurrax) in a buffer containing 20 mM Na-HEPES and 10 mM EDTA (pH 7.4) and centrifuged at 20.000 rpm for 15 min. The resulting pellet was resuspended, homogenized and centrifuged (20.000 rpm, 15 min) in a buffer containing 20 mM Na-HEPES and 0.1 mM EDTA (pH 7.4, buffer 2). The resulting pellet was resuspended in buffer 2 and protein concentration was measured (BCA protein Assay, Pierce). The homogenate was kept cold during the whole procedure. The membranes were kept at −80° C. until use. Assay was performed in a 384 well Optiplate (PerkinElmer) in a total volume of 40 ul. Membranes were mixed with SPA beads.

rat calcitonin receptor [3] = target: T1, rat calcitonin receptor; assay: SPA competition with 125I-calcitonin, membranes of BHK cells with rat calcitonin receptor (Assay VIII)
[4] = target: T3, rat amylin receptor (rat calcitonin …); assay: SPA competition with 125I-rat amylin, membranes of BHK cells with rat calcitonin receptor + rat RAMP3 (Assay VI)

Binder	Ratio rCT/rAmylin binding (rat calcitonin receptor [1])	Ratio hCT/hAmylin binding [2]	IC50 (rat calcitonin receptor [3])	IC50 [4]
KCNTATCATQRLAEFLRHSSPNFGAIPSSTNVGSNTY (C20 diacid-gGlu-2xOEG acylated on the alpha amino group of the N-terminal residue (Lys 1); disulfide Cys2-Cys7; C-terminal amide, Derivative of human amylin; also called compound 19)	93.6	36.7	95.6 nM	1.02 nM
{C20 diacid-γGlu-AEEA-AEEA}-KCNTATCATQRLAEFLRHSSPNFGAIPSSTNVGSNTP-NH2 (disulfide 2-7; SMILES CC[C@H](C)[C@H](NC(=O)[C@H](C)NC(=O)CNC(=O)[C@H](Cc1ccccc1)NC(=O)[C@H](CC(N)=O)NC(=O)[C@@H]1CCCN1C(=O)[C@H](CO)NC(=O)[C@H](CO)NC(=O)[C@H](Cc1c[nH]cn1)NC(=O)[C@H](CCCNC(=N)N)NC(=O)[C@H](CC(C)C)NC(=O)[C@H](Cc1ccccc1)NC(=O)[C@H](CCC(=O)O)NC(=O)[C@H](C)NC(=O)[C@H](CC(C)C)NC(=O)[C@H](CCCNC(=N)N)NC(=O)[C@H](CCC(N)=O)NC(=O)[C@@H](NC(=O)[C@H](C)NC(=O)[C@@H]1CSSC[C@H](NC(=O)[C@H](CCCCN)NC(=O)COCCOCCNC(=O)COCCOCCNC(=O)CC[C@H](NC(=O)CCCCCCCCCCCCCCCCCCC(=O)O)C(=O)O)C(=O)N[C@@H](CC(N)=O)C(=O)N[C@@H]([C@@H](C)O)C(=O)N[C@@H](C)C(=O)N[C@@H]([C@@H](C)O)C(=O)N1)[C@@H](C)O)C(=O)N1CCC[C@H]1C(=O)N[C@@H](CO)C(=O)N[C@@H](CO)C(=O)N[C@H](C(=O)N[C@@H](CC(N)=O)C(=O)N[C@H](C(=O)NCC(=O)N[C@@H](CO)C(=O)N[C@@H](CC(N)=O)C(=O)N[C@H](C(=O)N1CCC[C@H]1C(N)=O)[C@@H](C)O)C(C)C)[C@@H](C)O, Derivative of human amylin; also called compound 20)	6.4	3.6	4.43 nM	0.696 nM
KCNTATCATQRLANFLRHSSPNFGAIPSSTNVGSNTY (C20 diacid-gGlu-2xOEG acylated on the alpha amino group of the N-terminal residue (Lys 1); disulfide Cys2-Cys7; C-terminal amide, Derivative of human amylin; also called compound 24)	116	90	350 nM	3.01 nM

Next, values leading:

Ratio rCT/rAmylin binding (rat calcitonin receptor [1])	Ratio hCT/hAmylin binding [2]	IC50 (rat calcitonin receptor [3])	IC50 [4]	Binder
54.5	29	96.4 nM	1.77 nM	KCNTATCATQRLANFLRHSSPNFGAIPSSTNVGRNTY (C20 diacid-gGlu acylated on the alpha amino group of the N-terminal residue (Lys 1); disulfide Cys2-Cys7; C-terminal amide, Derivative of human amylin; also called compound 39) [N^α1-[(4S)-4-carboxy-4-(19-carboxynonadecanoylamino)butanoyl]-[Arg17,Pro21,Pro27,Arg34]-h-amylin]
52	64.4	89.2 nM	1.72 nM	KCNTATCATQRLANFLRHSSPNFGAIPSSTNVGSKTY (C20 diacid-gGlu acylated on the alpha amino group of the N-terminal residue (Lys 1); disulfide Cys2-Cys7; C-terminal amide, Derivative of human amylin; also called compound 34) [N^α1-[(4S)-4-carboxy-4-(19-carboxynonadecanoylamino)butanoyl]-[Arg17,Pro21,Pro27,Lys35]-h-amylin]
71.3	25	79.9 nM	1.12 nM	KCNTATCATQRLANFLRHSSPNFGAIPSSTNVGSETY (C20 diacid-gGlu acylated on the alpha amino group of the N-terminal residue (Lys 1); disulfide Cys2-Cys7; C-terminal amide, Derivative of human amylin; also called compound 23) [N^α1-[(4S)-4-carboxy-4-(19-carboxynonadecanoylamino)butanoyl]-[Arg17,Pro21,Pro27,Glu35]-h-amylin]
46.2	31.1	69.2 nM	1.5 nM	KCNTATCATQRLANFLRHSSPNFGAIPSSTNVGHNTY (C20 diacid-gGlu acylated on the alpha amino group of the N-terminal residue (Lys 1); disulfide Cys2-Cys7; C-terminal amide, Derivative of human amylin; also called compound 40) [N^α1-[(4S)-4-carboxy-4-(19-carboxynonadecanoylamino)butanoyl]-[Arg17,Pro21,Pro27,His34]-h-amylin]
